{"source": "patent US20180148493A1", "biological_target": "HLA-A2 (Homo sapiens)", "data": [{"binder": "AIIRILQQL (modifications not checked)", "note": "[…]", "values": [{"measurement": "IC50", "value": 385, "unit": "nM"}]}]}
